Results as given in the supplement of paper PMC9170038.

Tested on: MS2 coat protein
Test: apparent KD of MS2 coat protein; designed switch direction (-1 OFF switch, 1 ON switch): 1; higher = weaker reporter binding
In short: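 Each step of the titration lasted 0.8–1.5 h at the lowest concentration and 10–20 min at the highest. The protein, SNAP-549-labelled MS2 coat protein, went from 0.7 or 1.5 nM doubling to 3 µM over RNA switches transcribed on Illumina chips by stalled E. coli RNA polymerase. Normalised cluster fluorescence was curve-fitted, and the per-design median over clusters is given as apparent KD.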

[1] = Eterna round: R95, input ligand: FMN 200 uM
[2] = Eterna round: R95, input ligand: microRNA oligo, concentration not stated
[3] = Eterna round: R95, input ligand: none
[4] = input ligand: microRNA oligo, concentration not stated

| Sequence | apparent KD of MS2 coat protein [1] [nM] | apparent KD of MS2 coat protein [2] [nM] | apparent KD of MS2 coat protein [3] [nM] | apparent KD of MS2 coat protein (input ligand: FMN 200 uM) [nM] | apparent KD of MS2 coat protein [4] [nM] | apparent KD of MS2 coat protein (input ligand: none) [nM] |
| --- | --- | --- | --- | --- | --- | --- |
| AACAAGUUUUUGCUCGCUUAUAAGCAUGUACAUGAGGAUCACCCAUGUCAUGUACAAAGUCCAGCCUGAGCUGGACA [Reversing mir to lane 1] (puzzle: Sensor for hsa-mir-208a) | 24.5 | 15.5 | 25.4 |  |  |  |
| ACAUGAGACUUAGGAUAUGUUGUACCUACAUGUGACAUGAGGAUCACCCAUGUGGUAAGUAUGAGACAGAAGGAAGAGAUAUGU [Equivalence 29 - Jieux - Same State NG 2] (Eterna round: R96, puzzle: Same State NG 2) |  |  |  | 7.53 | 26.3 | 54.7 |
| UACAAUCUAUCUGAGGAUAUCAUGAAUUACACAUGAGGAUCACCCAUGUGCAGGAAAACUGCAUAUGAGAAGGCAGAUAGAUUGU [salish99_ss2_r3_065] (puzzle: Same State 2) | 81 | 1060 | 1970 |  |  |  |
| GGACGUCACUCAAACAAUUAAACAUGAGGAUCACCCAUGUCACAGGAUAUGGAUCCUAAUUGGAUCCAGAAGGGUGAGACGUCC [Fiskers NG3ss - 41] (Eterna round: R96, puzzle: Same State NG 3) |  |  |  |  | 193 |  |
| AUUGCUAUCACAGGAUAUCAUGCGAAAAUUGCGUGAGAAGGGUGGACUCUGUCAUUCACGGAGGACAUGAGGAUCACCCAUGUC [SameState NG1 #81] (Eterna round: R96, puzzle: Same State NG 1) |  |  |  | 1020 | 15.5 | 32.3 |
| GUACAAAUCAUAGGAUAUGGGCGGGAAUGCCGUCCAGAAGGAUGAACAUGAGGAUCACCCAUGUCCGGCCACAAAUACGCGGCC [Bientela] (Eterna round: R96, puzzle: Same State NG 1) |  |  |  | 72.3 | 104 | 161 |
| GCGAGCGUACUUGCUACAUGAGGAUCACCCAUGUUCGUUGGACAGGAUAUGGUACCGUUUCGGUACCAGAAGGGUUCAUCAUGA [JL SSNG3 3.76] (Eterna round: R96, puzzle: Same State NG 3) |  |  |  | 75.7 | 147 | 241 |
| AGUCCAGCCUGAGCUGGACAAAAGCAUGUACAUGAGGAUCACCCAUGUCAUGUACAAGCUUUUUGCUCAUCUUAAAA [Mat - hsa-mir-208a - Mod of JL - D11] (Eterna round: R96, puzzle: Sensor for hsa-mir-208a) |  |  |  | 750 | 11.8 | 886 |
| CCAACGUACAAUUUAGAUCUACAUGAGGAUCACCCAUGUACGGAGGAUAUCAGCUCGUUUAGAGCUGAGAAGGCCGAAUUAAUU [SSNG3/2-A3] (Eterna round: R96, puzzle: Same State NG 3) |  |  |  |  | 238 |  |
| CUGCGUAACACAGGAUAUACCUCCGCAAGGAACGUAGAAGGGUGAGUAGCAGACAUGAGGAUCACCCAUGUAAAGGCCAAGGCC [Enqudiso] (Eterna round: R96, puzzle: Same State NG 1) |  |  |  | 48.4 | 95.7 | 98 |
| AAUUUAAUACAUGAGGAUCACCCAUGUAAAUUAAUUAAGAUCUAGGAUAUCAGCUCGAUUAGAGCUGAGAAGGAGAUCACAUGU [SSNG3/19-B2] (Eterna round: R96, puzzle: Same State NG 3) |  |  |  |  | 12 |  |
| GGUCCAGCCUGAGCUGGACAAAAGCAUGUACAUGAGGAUCACCCAUGUCAUGUACAAGCUUUUUGCUCGUCAUAAUU [Mat - hsa-mir-208a - 100] (puzzle: Sensor for hsa-mir-208a) | 495 | 16 | 489 |  |  |  |
| CUCAAACAUGAGGAUCACCCAUGUGUUGUCAUGGGAGGAUAUCCCAGUUCGUUGUCGUCGGGAGAAGGCCUAUGUC [× ×•×ª×• ×ž×“×™× ×” × ×—×ª-14] (puzzle: Same State 1) |  | 55.9 |  |  |  |  |
